Drawing on the Human Domainome abundance scans (Beltran et al. 2025), this text covers abundance fitness for 97 variants.

The labels stand for the following.
B1: Transcription intermediary factor 1-beta, residues 620 to 671; numbered along this chain, Q13263 (parent)
chain: TLDDSATICRVCQKPGDLVMCNQCEFCFHLDCHLPALQDVPGEEWSCSLCHV

± gives the uncertainty stated by the source.

Variants of B1 are the subject of this data set. Put plainly: abundance fitness (aPCA) (normalised: wild type 0, dead -1); higher = more abundant; growth selection in yeast, the domain comes from the species named. To be noted: Homo sapiens.
For H51Y, the abundance fitness was -0.553 ± 0.41.

Turning to H51M, the abundance fitness turned out to be 0.021 ± 0.13.

On to H51N, for which the abundance fitness is -0.528 ± 0.21.

With H51L, the abundance fitness was -0.063 ± 0.12.

For the variant H51F, the abundance fitness was -0.452 ± 0.24.

For the variant H51P, the abundance fitness worked out at 0.248 ± 0.17.

As to H51R, the abundance fitness came out at 0.081 ± 0.11.

Take H51K: the abundance fitness is -0.415 ± 0.17.

H51W: the abundance fitness is -0.345 ± 0.19.

As to H51Q, the abundance fitness was 0.148 ± 0.16.

H51E: the abundance fitness worked out at 0.107 ± 0.15.

For H51V, the abundance fitness was -0.023 ± 0.094.

On to H51G, for which the abundance fitness was -0.302 ± 0.096.

Turning to S46T, the abundance fitness is -0.09 ± 0.11.

Take S46I: the abundance fitness is -0.01 ± 0.12.

For the variant S46F, the abundance fitness is -0.129 ± 0.11.

As to S46V, the abundance fitness was 0.059 ± 0.072.

Consider S46M, for which the abundance fitness turned out to be 0.082 ± 0.1.

As to S46P, the abundance fitness was -0.208 ± 0.13.

In the case of S46E, the abundance fitness came to 0.111 ± 0.082.

On to S46R, for which the abundance fitness was -0.101 ± 0.074.

With S46H, the abundance fitness is -0.113 ± 0.14.

Turning to S46L, the abundance fitness was -0.003 ± 0.078.

S46N: the abundance fitness stood at 0.018 ± 0.13.

For the variant S46Q, the abundance fitness came out at 0.118 ± 0.094.

Take S46C: the abundance fitness was -0.116 ± 0.091.

With S46Y, the abundance fitness was -0.245 ± 0.12.

For the variant S46K, the abundance fitness is 0.155 ± 0.1.

Consider S46A, for which the abundance fitness is 0.128 ± 0.077.

In the case of S46W, the abundance fitness was -0.131 ± 0.098.

Take V52H: the abundance fitness is -0.479 ± 0.44.

V52G: the abundance fitness was -0.32 ± 0.19.

As to V52Y, the abundance fitness was -0.284 ± 0.39.

Take V52R: the abundance fitness amounted to 0.137 ± 0.15.

In the case of V52D, the abundance fitness is -0.267 ± 0.23.

For the variant V52T, the abundance fitness is -0.11 ± 0.21.

For V52L, the abundance fitness is -0.369 ± 0.17.

As to V52F, the abundance fitness is -0.18 ± 0.19.

Take V52S: the abundance fitness was determined as 0.075 ± 0.27.

In the case of V52P, the abundance fitness was 0.041 ± 0.17.

For the variant V52I, the abundance fitness was -0.354 ± 0.13.

For the variant V52A, the abundance fitness stood at 0.197 ± 0.14.

Turning to V52C, the abundance fitness is -0.289 ± 0.31.

With L49R, the abundance fitness came out at 0.219 ± 0.075.

As for L49G, the abundance fitness came to 0.334 ± 0.066.

Consider L49I, for which the abundance fitness was -0.045 ± 0.14.

On to L49F, for which the abundance fitness worked out at 0.192 ± 0.12.

Consider L49P, for which the abundance fitness came out at 0.1 ± 0.098.

For the variant L49H, the abundance fitness came to 0.496 ± 0.15.

Take L49T: the abundance fitness is 0.301 ± 0.086.

With L49Y, the abundance fitness was 0.131 ± 0.12.

As to L49M, the abundance fitness amounted to 0 ± 0.092.

In the case of L49E, the abundance fitness amounted to 0.389 ± 0.092.

With L49V, the abundance fitness is -0.09 ± 0.082.

L49S: the abundance fitness amounted to 0.303 ± 0.08.

For L49N, the abundance fitness was found to be 0.46 ± 0.13.

Take L49C: the abundance fitness is -0.282 ± 0.14.

In the case of L49W, the abundance fitness was determined as 0.066 ± 0.076.

Regarding L49A, the abundance fitness is 0.205 ± 0.076.

L49K: the abundance fitness is 0.27 ± 0.11.

As to L49Q, the abundance fitness stood at 0.263 ± 0.12.

In the case of L49D, the abundance fitness was found to be 0.277 ± 0.1.

Consider C47L, for which the abundance fitness is -0.864 ± 0.1.

In the case of C47Q, the abundance fitness is -0.636 ± 0.14.

As for C47N, the abundance fitness was -0.382 ± 0.12.

Turning to C47P, the abundance fitness is -0.484 ± 0.12.

For the variant C47H, the abundance fitness was -0.572 ± 0.14.

As to C47D, the abundance fitness is -0.456 ± 0.12.

In the case of C47G, the abundance fitness is -0.33 ± 0.075.

Consider C47V, for which the abundance fitness is -0.807 ± 0.089.

Take C47M: the abundance fitness is -0.794 ± 0.12.

Regarding C47I, the abundance fitness is -1.05 ± 0.22.

On to C47E, for which the abundance fitness is -0.295 ± 0.088.

As to C47K, the abundance fitness was -0.466 ± 0.11.

For C47W, the abundance fitness is -0.951 ± 0.11.

For C47T, the abundance fitness was -0.565 ± 0.11.

As for C47R, the abundance fitness was -0.552 ± 0.079.

C47S: the abundance fitness was -0.343 ± 0.083.

With C47Y, the abundance fitness was -0.736 ± 0.17.

Turning to S48I, the abundance fitness was -0.798 ± 0.2.

Turning to S48G, the abundance fitness was -0.071 ± 0.083.

For S48L, the abundance fitness was -0.409 ± 0.097.

Regarding S48H, the abundance fitness is 0.052 ± 0.21.

For the variant S48Y, the abundance fitness is -0.094 ± 0.14.

Regarding S48A, the abundance fitness is -0.112 ± 0.1.

As to S48D, the abundance fitness is -0.242 ± 0.17.

For the variant S48W, the abundance fitness came to 0.057 ± 0.13.

On to S48F, for which the abundance fitness is -0.45 ± 0.18.

On to S48R, for which the abundance fitness worked out at 0.105 ± 0.087.

With S48N, the abundance fitness was -0.114 ± 0.28.

As for S48V, the abundance fitness was -0.508 ± 0.085.

As for S48M, the abundance fitness turned out to be 0.386 ± 0.1.

As for S48P, the abundance fitness worked out at 0.152 ± 0.12.

For S48E, the abundance fitness is -0.014 ± 0.12.

As to S48C, the abundance fitness is -0.324 ± 0.2.

S48Q: the abundance fitness is -0.234 ± 0.18.

For the variant S48T, the abundance fitness was -0.217 ± 0.1.
